The values below come from article PMC7066465.

One may read the stoichiometry N as the number of molecules, sites or subunits per partner or assembly.

Test [1] has as its target native allophycocyanin of Agarophyton chilensis, αβ unit (Agarophyton chilensis). Kind of test: SEC; Superdex 200 HiLoad 16/60; oligomer size estimated from a calibration curve of MW standards 1,750-670,000 Da (Bio-Rad gel filtration standard); oligomer of αβ units.
For test [2], the target named is recombinant allophycocyanin of Agarophyton chilensis, αβ unit (Agarophyton chilensis). Described as above.

As to “native allophycocyanin of Agarophyton chilensis, αβ unit (complex)”, in test [1], the stoichiometry N was 3.
“recombinant allophycocyanin of Agarophyton chilensis, αβ unit (complex)”: the stoichiometry N in test [2] was 3.
